From the supplement of paper PMC7877785
± gives the uncertainty stated by the source.

Assay: self-splicing fitness, log relative to wild type (ln ratio); higher = more splicing; Tetrahymena group I intron in knt gene, E. coli kanamycin selection, DiMSum; sequences stand for … in CUCUCU…GGAGGGAAAAGUUAUCAGGCAUGCACCUGGUAGCUAGUCUUUAAACCAAUAGAUUGCAUCGGUUUAAAAGGCAAGACCGUCAAAUUGCGGGAAAGGGGUCAACAGCCGUUCAGUACCAAGUCUCAGGGGAAACUUUGAGAUGGCCUUGCAAAGGGUAUGGUAAUAAGCUGACGGACAUGGUCCUAACCACGCAGCCAAGUCCUAAGUCAACAGAUCUUCUGUUGAUAUGGAUGCAGUUCACAGACUAAAUGUCGGUCGGGGAAGAUGUAUUCUUCUCAUAAGAUAUAGUCGGACCUCUCCUUAAUGGGAGCUAGCGGAUGAAGUGAUGCAACACUGGAGCCGCUGGGAACUAAUUUGUAUGCGAAAGUAUAUUGAUUAGUUUUGGAGUACUCGUGGUCG
Procedure, shortened: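 Fitness was computed with DiMSum as the error-weighted combination of replicate fold changes, kanamycin versus none, each normalised to wild type. The library randomised all eight intron nucleotides of the P1ex region, with the intron placed in the knt kanamycin-resistance gene on pET-22b(+) in E. coli BL21(DE3). Six replicate transformations were grown overnight at 37°C or 30°C on LB agar with or without 25 μg/mL kanamycin, plus 100 μg/mL carbenicillin, 50 μM IPTG and 0.2% rhamnose. Pooled colonies were amplicon-sequenced on an Illumina HiSeq 2500.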

| Sequence | self-splicing fitness (ln) (30 °C) | self-splicing fitness (ln) (37 °C) |
| --- | --- | --- |
| CUGCAGCAAUAUUACGACGC | -3.79 ± 0.27 | -3.06 ± 0.29 |
| ACACAGCAAUAUUACGAGGG | -3.71 ± 0.11 | -1.85 ± 0.1 |
| CUCUAGCAAUAUUACGUGAU | -3.45 ± 0.15 | -3.92 ± 0.24 |
| AGAAAGCAAUAUUACGUCAU | -1.55 ± 0.079 | -0.954 ± 0.096 |
| GUGGAGCAAUAUUACGUAGA | -2.11 ± 0.45 | -1.16 ± 0.23 |
| AAUUAGCAAUAUUACGGGAG | -2.99 ± 0.19 | -2.17 ± 0.16 |
| UAGCAGCAAUAUUACGAGCG | 0.035 ± 0.078 | 0.235 ± 0.098 |
| UCAAAGCAAUAUUACGAGCA | -1.07 ± 0.15 | -0.556 ± 0.15 |
| UACAAGCAAUAUUACGAAUA | -1.56 ± 0.087 | -0.567 ± 0.1 |
| ACGGAGCAAUAUUACGGAUC | -3.09 ± 0.17 | -2.79 ± 0.26 |
| ACGAAGCAAUAUUACGCAUG | -1.79 ± 0.062 | -0.62 ± 0.083 |
| AUAAAGCAAUAUUACGACCG | -0.25 ± 0.13 | -0.14 ± 0.18 |
| AUAUAGCAAUAUUACGUGUU | -4.26 ± 0.39 | -1.21 ± 0.18 |
| UGAUAGCAAUAUUACGCUGA | -1.79 ± 0.2 | -0.53 ± 0.12 |
| CAGAAGCAAUAUUACGAAGA | -3.8 ± 0.27 | -2.85 ± 0.25 |
| UAUUAGCAAUAUUACGGAAA | -1.81 ± 0.48 | -1.98 ± 0.46 |
| CCGUAGCAAUAUUACGAGGG | -3.25 ± 0.18 | -0.352 ± 0.17 |
| UGUCAGCAAUAUUACGAUAG | -0.276 ± 0.072 | 0.347 ± 0.088 |
| UGAUAGCAAUAUUACGAAUG | -1.19 ± 0.12 | -1.14 ± 0.16 |
| AUGGAGCAAUAUUACGCUUG | -1.46 ± 0.12 | -0.294 ± 0.12 |
| AGGGAGCAAUAUUACGUAUG | -2.98 ± 0.3 | -2.37 ± 0.49 |
| UCGAAGCAAUAUUACGGAAG | -1.18 ± 0.2 | -2.11 ± 0.38 |
| UAACAGCAAUAUUACGUCAU | -3.81 ± 0.16 | -1.74 ± 0.15 |
| AUAAAGCAAUAUUACGCUAG | -0.761 ± 0.1 | -0.165 ± 0.12 |
| UUAUAGCAAUAUUACGACAA | -0.403 ± 0.12 | -0.279 ± 0.11 |
| GAUCAGCAAUAUUACGCUGC | -3.18 ± 0.19 | -2.18 ± 0.23 |

| Sequence | self-splicing fitness (ln) (30 °C) | self-splicing fitness (ln) (37 °C) |
| --- | --- | --- |
| CAACAGCAAUAUUACGCCGU | -4.14 ± 0.29 | -2.82 ± 0.38 |
| GAUUAGCAAUAUUACGUCAG | -3.51 ± 0.35 | -4.23 ± 0.46 |
| AGACAGCAAUAUUACGAAUC | – | -3.41 ± 0.47 |
| GCUAAGCAAUAUUACGAAAG | -0.97 ± 0.14 | -1.09 ± 0.21 |
| UUCGAGCAAUAUUACGUCGU | -3.29 ± 0.33 | -1.24 ± 0.21 |
| CGGUAGCAAUAUUACGACAU | -2.405 ± 0.019 | -1.38 ± 0.035 |
| CACCAGCAAUAUUACGUAUG | -0.556 ± 0.041 | -0.105 ± 0.055 |
| GCACAGCAAUAUUACGCAGG | -3.5 ± 0.18 | -2.74 ± 0.18 |
| CCGCAGCAAUAUUACGGUCA | -3.47 ± 0.29 | -2.46 ± 0.3 |
| UAAUAGCAAUAUUACGGUAC | -3.69 ± 0.43 | -2.37 ± 0.37 |
| CGAUAGCAAUAUUACGUGGU | -3.97 ± 0.16 | -1.94 ± 0.12 |
| ACACAGCAAUAUUACGGGGG | -2.9 ± 0.14 | -2.45 ± 0.15 |
| CACAAGCAAUAUUACGAUAG | -0.655 ± 0.046 | 0.242 ± 0.062 |
| CUUCAGCAAUAUUACGGGGG | -3.72 ± 0.21 | -2.23 ± 0.26 |
| AUCCAGCAAUAUUACGGGUU | -3.75 ± 0.15 | -2.89 ± 0.21 |
| UAGCAGCAAUAUUACGGACG | -0.528 ± 0.08 | -0.837 ± 0.1 |
| AAUUAGCAAUAUUACGCCCA | 0.555 ± 0.24 | -0.278 ± 0.36 |
| AUCUAGCAAUAUUACGGAGU | -2.61 ± 0.28 | -1.52 ± 0.2 |
| ACGUAGCAAUAUUACGCUAG | -2.85 ± 0.12 | -0.713 ± 0.13 |
| ACAUAGCAAUAUUACGCAGG | -2.73 ± 0.15 | -2.23 ± 0.17 |
| GUGCAGCAAUAUUACGGCGG | -1.98 ± 0.11 | -1.1 ± 0.13 |
| ACUGAGCAAUAUUACGGUCC | – | -2.26 ± 0.33 |
| GGGAAGCAAUAUUACGGCUA | -0.707 ± 0.089 | 0.0151 ± 0.12 |
| CAACAGCAAUAUUACGAUUU | -0.837 ± 0.067 | -0.69 ± 0.083 |
| CUGAAGCAAUAUUACGUUAA | -3.39 ± 0.16 | -2.65 ± 0.28 |
| UCAAAGCAAUAUUACGUGUU | -3.06 ± 0.1 | -2.8 ± 0.14 |

| Sequence | self-splicing fitness (ln) (30 °C) | self-splicing fitness (ln) (37 °C) |
| --- | --- | --- |
| GCGGAGCAAUAUUACGACGG | -2.27 ± 0.19 | -1.13 ± 0.2 |
| ACUUAGCAAUAUUACGGUAA | -2.66 ± 0.15 | -1.42 ± 0.14 |
| CAUCAGCAAUAUUACGUGUU | -2.31 ± 0.12 | -2.79 ± 0.24 |
| ACGUAGCAAUAUUACGCGUG | -1.73 ± 0.094 | -0.962 ± 0.11 |
| GAGUAGCAAUAUUACGAGAU | -4.02 ± 0.29 | -2.51 ± 0.28 |
| GGAAAGCAAUAUUACGCGCC | -3.03 ± 0.49 | -2.17 ± 0.42 |
| UCAAAGCAAUAUUACGGUCU | -2.68 ± 0.16 | -1.58 ± 0.14 |
| UGGCAGCAAUAUUACGCUCC | -2.19 ± 0.37 | – |
| GCAGAGCAAUAUUACGAUAU | -3.38 ± 0.29 | -1.72 ± 0.2 |
| AUCUAGCAAUAUUACGUGCC | -2.47 ± 0.23 | -1.08 ± 0.15 |
| GACUAGCAAUAUUACGCCGU | -2.15 ± 0.11 | -0.995 ± 0.1 |
| AGAGAGCAAUAUUACGAGGC | -2.09 ± 0.25 | – |
| GCGUAGCAAUAUUACGGCGA | -0.0106 ± 0.13 | 0.378 ± 0.16 |
| ACCAAGCAAUAUUACGCACU | -0.396 ± 0.07 | 0.498 ± 0.085 |
| UUUUAGCAAUAUUACGACGU | -2.06 ± 0.25 | -1.24 ± 0.22 |
| GCUCAGCAAUAUUACGCUUC | -1.9 ± 0.077 | -0.102 ± 0.081 |
| CUGUAGCAAUAUUACGCCUG | -0.759 ± 0.14 | 0.521 ± 0.16 |
| AUGCAGCAAUAUUACGAACU | -0.238 ± 0.1 | 0.379 ± 0.11 |
| GGAGAGCAAUAUUACGAAAG | -2.26 ± 0.26 | – |
| CGAUAGCAAUAUUACGGAUC | -3.1 ± 0.3 | -2.6 ± 0.23 |
| CACCAGCAAUAUUACGAAGG | -1.1 ± 0.046 | -0.304 ± 0.077 |
| AAGAAGCAAUAUUACGCACU | -0.114 ± 0.063 | -0.103 ± 0.081 |
| CGGUAGCAAUAUUACGGUGC | -2.22 ± 0.27 | -2.48 ± 0.38 |
| UCCUAGCAAUAUUACGGGUG | -0.384 ± 0.07 | 0.124 ± 0.087 |
